Test results published in patent US20220143024A1, “METHODS OF USING IMIPRIDONES” (Board of Regents, The University of Texas System, priority 2019, published 2022).

Columns and labels:
SUCLA2 (human) = SUCLA2 (human) (UniProt Q9P2R7); experiment: BioID-MS
FOXRED1 (human) = FOXRED1 (human) (UniProt Q96CU9); experiment: BioID-MS
GTPBP10 (human) = GTPBP10 (human) (UniProt A4D1E9); experiment: BioID-MS
NDUFV2 (human) [1] = target: NDUFV2 (human) (UniProt P19404); experiment: BioID-MS
GPT2 (human) = GPT2 (human) (UniProt Q8TD30); experiment: BioID-MS
MRPS11 (human) = MRPS11 (human) (UniProt P82912); experiment: BioID-MS
GFM1 (human) = GFM1 (human) (UniProt Q96RP9); experiment: BioID-MS
MRPL21 (human) = MRPL21 (human) (UniProt Q7Z2W9); experiment: BioID-MS
WARS2 (human) = WARS2 (human) (UniProt Q9UGM6); experiment: BioID-MS
ABHD10 (human) = ABHD10 (human) (UniProt Q9NUJ1); experiment: BioID-MS
Sequence of ABHD10 (human) (Q9NUJ1 53-306 limits assumed): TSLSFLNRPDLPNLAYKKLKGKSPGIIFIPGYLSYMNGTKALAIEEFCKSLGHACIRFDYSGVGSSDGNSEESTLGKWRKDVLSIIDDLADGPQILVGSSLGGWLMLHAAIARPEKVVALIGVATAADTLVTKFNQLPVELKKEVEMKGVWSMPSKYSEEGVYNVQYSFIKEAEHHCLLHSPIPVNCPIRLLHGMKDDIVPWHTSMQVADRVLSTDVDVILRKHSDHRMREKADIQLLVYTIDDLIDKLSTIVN

MARS2 (human) = MARS2 (human) (UniProt Q96GW9); experiment: BioID-MS
PTPMT1 (human) = PTPMT1 (human) (UniProt Q8WUK0); experiment: BioID-MS
MRPS15 (human) = MRPS15 (human) (UniProt P82914); experiment: BioID-MS
PAM16 (human) = PAM16 (human) (UniProt Q9Y3D7); experiment: BioID-MS
C8orf82 (human) = C8orf82 (human) (UniProt Q6P1X6); experiment: BioID-MS
THEM4 (human) = THEM4 (human) (UniProt Q5T1C6); experiment: BioID-MS
METTL17 (human) = METTL17 (human) (UniProt Q9H7H0); experiment: BioID-MS
Sequence of METTL17 (human) (Q9H7H0 28-456 limits assumed): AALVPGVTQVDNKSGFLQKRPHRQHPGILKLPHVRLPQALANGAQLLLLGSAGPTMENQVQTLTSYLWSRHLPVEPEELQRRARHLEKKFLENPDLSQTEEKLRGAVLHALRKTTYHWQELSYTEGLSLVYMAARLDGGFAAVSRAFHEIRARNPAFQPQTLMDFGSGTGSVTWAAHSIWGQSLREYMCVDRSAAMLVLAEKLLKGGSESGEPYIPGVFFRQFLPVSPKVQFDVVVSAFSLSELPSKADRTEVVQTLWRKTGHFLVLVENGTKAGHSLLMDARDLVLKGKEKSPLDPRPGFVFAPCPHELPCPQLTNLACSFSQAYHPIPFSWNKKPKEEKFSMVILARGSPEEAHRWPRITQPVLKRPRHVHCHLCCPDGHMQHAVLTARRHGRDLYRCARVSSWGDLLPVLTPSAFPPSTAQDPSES

NDUFS7 (human) = NDUFS7 (human) (UniProt O75251); experiment: BioID-MS
POLG2 (human) = POLG2 (human) (UniProt Q9UHN1); experiment: BioID-MS
GLUD1 (human) = GLUD1 (human) (UniProt P00367); experiment: BioID-MS
OGDH (human) = OGDH (human) (UniProt Q02218); experiment: BioID-MS
GRSF1 (human) = GRSF1 (human) (UniProt Q12849); experiment: BioID-MS
BCS1L (human) = BCS1L (human) (UniProt Q9Y276); experiment: BioID-MS
FMC1 (human) = FMC1 (human) (UniProt Q96HJ9); experiment: BioID-MS
Sequence of FMC1 (human) (Q96HJ9 whole entry): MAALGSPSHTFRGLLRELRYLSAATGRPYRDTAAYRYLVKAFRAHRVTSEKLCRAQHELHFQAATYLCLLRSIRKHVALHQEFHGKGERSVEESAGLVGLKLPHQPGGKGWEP

ACADVL (human) = ACADVL (human) (UniProt P49748); experiment: BioID-MS
IBA57 (human) = IBA57 (human) (UniProt Q5T440); experiment: BioID-MS
SHMT2 (human) = SHMT2 (human) (UniProt P34897); experiment: BioID-MS
Sequence of SHMT2 (human) (P34897 30-504 limits assumed): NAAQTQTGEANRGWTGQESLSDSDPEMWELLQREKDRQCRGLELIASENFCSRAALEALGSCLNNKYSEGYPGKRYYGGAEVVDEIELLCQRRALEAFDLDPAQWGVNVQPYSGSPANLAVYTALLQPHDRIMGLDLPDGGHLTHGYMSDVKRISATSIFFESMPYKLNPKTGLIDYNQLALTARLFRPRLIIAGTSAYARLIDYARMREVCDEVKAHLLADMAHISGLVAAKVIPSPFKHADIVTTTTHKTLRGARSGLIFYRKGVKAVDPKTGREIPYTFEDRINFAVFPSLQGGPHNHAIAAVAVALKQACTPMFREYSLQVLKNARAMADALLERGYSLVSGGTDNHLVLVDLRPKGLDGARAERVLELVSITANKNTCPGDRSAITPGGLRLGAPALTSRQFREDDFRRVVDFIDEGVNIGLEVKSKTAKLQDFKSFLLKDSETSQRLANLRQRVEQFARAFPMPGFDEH

NDUFAF1 (human) = NDUFAF1 (human) (UniProt Q9Y375); experiment: BioID-MS
HARS2 (human) = HARS2 (human) (UniProt P49590); experiment: BioID-MS
TAC01 (human) = TAC01 (human) (UniProt Q9BSH4); experiment: BioID-MS
NDUFAF7 (human) = NDUFAF7 (human) (UniProt Q7L592); experiment: BioID-MS
ACADM (human) = ACADM (human) (UniProt P11310); experiment: BioID-MS
ACSS1 (human) = ACSS1 (human) (UniProt Q9NUB1); experiment: BioID-MS
EARS2 (human) = EARS2 (human) (UniProt Q5JPH6); experiment: BioID-MS
Sequence of EARS2 (human) (Q5JPH6 42-523 limits assumed): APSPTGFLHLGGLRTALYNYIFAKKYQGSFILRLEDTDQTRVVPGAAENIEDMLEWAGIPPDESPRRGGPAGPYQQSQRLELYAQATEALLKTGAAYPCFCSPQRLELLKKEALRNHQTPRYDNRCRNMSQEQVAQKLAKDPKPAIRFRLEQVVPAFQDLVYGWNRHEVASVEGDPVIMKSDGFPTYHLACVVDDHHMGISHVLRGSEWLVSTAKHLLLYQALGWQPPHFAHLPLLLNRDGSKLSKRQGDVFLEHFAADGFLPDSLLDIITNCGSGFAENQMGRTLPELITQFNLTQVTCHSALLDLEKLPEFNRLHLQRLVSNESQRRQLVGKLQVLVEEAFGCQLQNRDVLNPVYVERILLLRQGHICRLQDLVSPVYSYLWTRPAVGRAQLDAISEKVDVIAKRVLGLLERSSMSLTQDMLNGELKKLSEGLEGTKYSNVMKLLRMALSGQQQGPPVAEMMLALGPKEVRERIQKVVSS

PNPT1 (human) = PNPT1 (human) (UniProt Q8TCS8); experiment: BioID-MS
MRPL14 (human) = MRPL14 (human) (UniProt Q6P1L8); experiment: BioID-MS
MRPL55 (human) = MRPL55 (human) (UniProt Q7Z7F7); experiment: BioID-MS
MRPL10 (human) = MRPL10 (human) (UniProt Q7Z7H8); experiment: BioID-MS
CARS2 (human) = CARS2 (human) (UniProt Q9HA77); experiment: BioID-MS
Sequence of CARS2 (human) (Q9HA77 whole entry): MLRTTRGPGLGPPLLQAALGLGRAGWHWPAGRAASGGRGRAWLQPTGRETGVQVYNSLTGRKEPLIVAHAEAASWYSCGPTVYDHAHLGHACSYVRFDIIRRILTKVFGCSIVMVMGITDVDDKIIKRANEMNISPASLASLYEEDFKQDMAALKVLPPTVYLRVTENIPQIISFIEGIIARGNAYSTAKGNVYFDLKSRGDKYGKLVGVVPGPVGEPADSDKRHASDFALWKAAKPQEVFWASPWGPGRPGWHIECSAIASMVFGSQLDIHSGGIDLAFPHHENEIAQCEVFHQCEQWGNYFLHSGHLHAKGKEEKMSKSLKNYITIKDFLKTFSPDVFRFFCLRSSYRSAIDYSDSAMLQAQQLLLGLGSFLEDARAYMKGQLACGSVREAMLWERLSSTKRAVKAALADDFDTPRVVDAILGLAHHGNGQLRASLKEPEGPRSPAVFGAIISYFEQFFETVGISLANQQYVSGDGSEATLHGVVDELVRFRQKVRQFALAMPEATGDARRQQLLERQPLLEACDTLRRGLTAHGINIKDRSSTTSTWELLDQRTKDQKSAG

IDE (human) = IDE (human) (UniProt P14735); experiment: BioID-MS
MRPL12 (human) = MRPL12 (human) (UniProt P52815); experiment: BioID-MS
ADCK3 (human) = ADCK3 (human) (UniProt Q8NI60); experiment: BioID-MS
MRPL47 (human) = MRPL47 (human) (UniProt Q9HD33); experiment: BioID-MS +ONC201
NDUFV2 (human) [2] = target: NDUFV2 (human) (UniProt P19404); experiment: BioID-MS +ONC201
PDK3 (human) = PDK3 (human) (UniProt Q15120); experiment: BioID-MS +ONC201
NDUFA2 (human) = NDUFA2 (human) (UniProt O43678); experiment: BioID-MS +ONC201
MTRF1L (human) = MTRF1L (human) (UniProt Q9UGC7); experiment: BioID-MS +ONC201
Sequence of MTRF1L (human) (Q9UGC7 27-380 limits assumed): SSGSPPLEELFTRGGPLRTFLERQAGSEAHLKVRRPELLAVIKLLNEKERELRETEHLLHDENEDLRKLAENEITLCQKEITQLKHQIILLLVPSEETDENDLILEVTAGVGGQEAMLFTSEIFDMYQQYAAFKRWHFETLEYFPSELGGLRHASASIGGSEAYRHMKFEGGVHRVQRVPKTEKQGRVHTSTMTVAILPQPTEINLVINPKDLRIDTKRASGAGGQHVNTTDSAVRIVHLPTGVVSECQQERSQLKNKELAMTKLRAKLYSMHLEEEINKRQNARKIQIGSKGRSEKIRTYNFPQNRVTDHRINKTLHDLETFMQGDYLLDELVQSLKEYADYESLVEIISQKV

VARS2 (human) = VARS2 (human) (UniProt Q5ST30); experiment: BioID-MS +ONC201
SDHB (human) = SDHB (human) (UniProt P21912); experiment: BioID-MS +ONC201
RTN4IP1 (human) = RTN4IP1 (human) (UniProt Q8WWV3); experiment: BioID-MS +ONC201
TFAM (human) = TFAM (human) (UniProt Q00059); experiment: BioID-MS +ONC201
SUPV3L1 (human) = SUPV3L1 (human) (UniProt Q8IYB8); experiment: BioID-MS +ONC201
ABAT (human) = ABAT (human) (UniProt P80404); experiment: BioID-MS +ONC201
Sequence of ABAT (human) (P80404 29-500 limits assumed): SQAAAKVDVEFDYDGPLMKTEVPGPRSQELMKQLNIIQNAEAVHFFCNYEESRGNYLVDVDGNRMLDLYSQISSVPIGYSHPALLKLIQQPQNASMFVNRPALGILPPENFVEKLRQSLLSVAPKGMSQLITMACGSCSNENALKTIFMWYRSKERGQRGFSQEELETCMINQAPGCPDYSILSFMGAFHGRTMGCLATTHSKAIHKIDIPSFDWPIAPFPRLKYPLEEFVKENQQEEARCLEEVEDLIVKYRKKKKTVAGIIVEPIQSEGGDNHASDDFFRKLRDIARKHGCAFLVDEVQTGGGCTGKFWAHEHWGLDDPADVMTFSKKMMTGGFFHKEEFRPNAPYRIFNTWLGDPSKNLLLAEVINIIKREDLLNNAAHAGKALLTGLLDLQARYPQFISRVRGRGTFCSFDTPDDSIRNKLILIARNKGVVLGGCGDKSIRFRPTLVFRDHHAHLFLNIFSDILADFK

SLIRP (human) = SLIRP (human) (UniProt Q9GZT3); experiment: BioID-MS +ONC201
HSDL2 (human) = HSDL2 (human) (UniProt Q6YN16); experiment: BioID-MS +ONC201
Sequence of HSDL2 (human) (Q6YN16 whole entry): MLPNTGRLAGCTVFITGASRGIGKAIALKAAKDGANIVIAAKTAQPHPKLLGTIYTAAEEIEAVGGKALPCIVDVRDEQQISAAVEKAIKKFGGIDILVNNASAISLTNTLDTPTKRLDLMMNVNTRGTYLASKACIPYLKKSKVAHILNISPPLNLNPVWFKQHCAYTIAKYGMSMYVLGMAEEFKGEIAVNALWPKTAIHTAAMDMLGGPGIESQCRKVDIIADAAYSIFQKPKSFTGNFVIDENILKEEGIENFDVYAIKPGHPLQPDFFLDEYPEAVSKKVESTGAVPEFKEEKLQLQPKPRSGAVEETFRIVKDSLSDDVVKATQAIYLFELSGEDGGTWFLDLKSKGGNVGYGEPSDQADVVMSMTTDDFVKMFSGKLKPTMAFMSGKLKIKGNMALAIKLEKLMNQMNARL

TARS2 (human) = TARS2 (human) (UniProt Q9BW92); experiment: BioID-MS +ONC201
Sequence of TARS2 (human) (Q9BW92 whole entry): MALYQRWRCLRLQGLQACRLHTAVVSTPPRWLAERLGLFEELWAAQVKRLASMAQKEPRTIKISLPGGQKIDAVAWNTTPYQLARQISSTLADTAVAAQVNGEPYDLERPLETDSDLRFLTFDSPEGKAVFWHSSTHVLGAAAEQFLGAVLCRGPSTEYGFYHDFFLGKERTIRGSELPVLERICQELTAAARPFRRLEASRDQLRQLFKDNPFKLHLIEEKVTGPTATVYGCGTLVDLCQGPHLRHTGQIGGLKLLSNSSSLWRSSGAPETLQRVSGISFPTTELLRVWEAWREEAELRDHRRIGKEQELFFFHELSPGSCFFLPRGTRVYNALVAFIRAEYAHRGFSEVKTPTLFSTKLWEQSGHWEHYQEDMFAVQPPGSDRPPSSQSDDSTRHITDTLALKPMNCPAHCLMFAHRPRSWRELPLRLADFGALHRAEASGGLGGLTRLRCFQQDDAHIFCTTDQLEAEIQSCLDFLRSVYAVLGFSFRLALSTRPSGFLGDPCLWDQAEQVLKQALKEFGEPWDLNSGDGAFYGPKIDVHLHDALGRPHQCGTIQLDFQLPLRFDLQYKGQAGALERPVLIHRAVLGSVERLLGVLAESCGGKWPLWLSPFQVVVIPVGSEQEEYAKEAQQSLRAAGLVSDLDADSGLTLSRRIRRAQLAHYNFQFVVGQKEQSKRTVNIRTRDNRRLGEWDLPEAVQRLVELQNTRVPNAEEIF

Sequence of NDUFV2 (human) (P19404 33-249 limits assumed): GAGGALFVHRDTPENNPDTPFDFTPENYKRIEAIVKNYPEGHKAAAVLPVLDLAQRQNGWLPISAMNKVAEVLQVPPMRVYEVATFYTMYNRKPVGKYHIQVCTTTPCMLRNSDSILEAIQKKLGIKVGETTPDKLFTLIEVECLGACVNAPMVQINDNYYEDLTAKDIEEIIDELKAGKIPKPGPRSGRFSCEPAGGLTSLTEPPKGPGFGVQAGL
Sequence of SUCLA2 (human) (Q9P2R7 53-463 limits assumed): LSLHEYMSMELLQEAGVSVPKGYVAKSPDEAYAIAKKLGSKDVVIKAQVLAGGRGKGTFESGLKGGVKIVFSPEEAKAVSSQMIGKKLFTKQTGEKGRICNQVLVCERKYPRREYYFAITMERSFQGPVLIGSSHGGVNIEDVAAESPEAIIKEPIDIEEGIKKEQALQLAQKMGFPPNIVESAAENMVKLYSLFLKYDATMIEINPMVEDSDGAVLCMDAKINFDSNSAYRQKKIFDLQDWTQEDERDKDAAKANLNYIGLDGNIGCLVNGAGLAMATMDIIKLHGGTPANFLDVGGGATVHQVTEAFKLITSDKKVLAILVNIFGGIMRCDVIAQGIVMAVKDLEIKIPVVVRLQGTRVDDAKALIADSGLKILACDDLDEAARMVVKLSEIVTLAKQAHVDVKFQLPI

## FlagBirA-ClpP (Y118A) (from UniProt P06709 1-321; Q16740 57-277) (enzyme)
SUCLA2 (human)
  Log2 Fold change (vs control): -0.06 log2
FOXRED1 (human)
  Log2 Fold change (vs control): -4.09 log2
GTPBP10 (human)
  Log2 Fold change (vs control): -0.91 log2
NDUFV2 (human) [1]
  Log2 Fold change (vs control): -0.47 log2
GPT2 (human)
  Log2 Fold change (vs control): 0.21 log2
MRPS11 (human)
  Log2 Fold change (vs control): -0.34 log2
GFM1 (human)
  Log2 Fold change (vs control): -0.26 log2
MRPL21 (human)
  Log2 Fold change (vs control): -0.72 log2
WARS2 (human)
  Log2 Fold change (vs control): 0.25 log2
ABHD10 (human)
  Log2 Fold change (vs control): -0.16 log2
MARS2 (human)
  Log2 Fold change (vs control): 0.23 log2
PTPMT1 (human)
  Log2 Fold change (vs control): -0.04 log2
MRPS15 (human)
  Log2 Fold change (vs control): -2.32 log2
PAM16 (human)
  Log2 Fold change (vs control): -0.42 log2
C8orf82 (human)
  Log2 Fold change (vs control): 1.6 log2
THEM4 (human)
  Log2 Fold change (vs control): -0.17 log2
METTL17 (human)
  Log2 Fold change (vs control): -3.58 log2
NDUFS7 (human)
  Log2 Fold change (vs control): -0.08 log2
POLG2 (human)
  Log2 Fold change (vs control): -0.89 log2
GLUD1 (human)
  Log2 Fold change (vs control): -0.39 log2
OGDH (human)
  Log2 Fold change (vs control): 1.67 log2
GRSF1 (human)
  Log2 Fold change (vs control): 1.91 log2
BCS1L (human)
  Log2 Fold change (vs control): 0.47 log2
FMC1 (human)
  Log2 Fold change (vs control): 0.41 log2
ACADVL (human)
  Log2 Fold change (vs control): 0.28 log2
IBA57 (human)
  Log2 Fold change (vs control): 1.65 log2
SHMT2 (human)
  Log2 Fold change (vs control): -0.25 log2
NDUFAF1 (human)
  Log2 Fold change (vs control): -4.32 log2
HARS2 (human)
  Log2 Fold change (vs control): -0.49 log2
TAC01 (human)
  Log2 Fold change (vs control): 0.07 log2
NDUFAF7 (human)
  Log2 Fold change (vs control): 0.04 log2
ACADM (human)
  Log2 Fold change (vs control): -0.4 log2
ACSS1 (human)
  Log2 Fold change (vs control): -1.46 log2
EARS2 (human)
  Log2 Fold change (vs control): -0.17 log2
PNPT1 (human)
  Log2 Fold change (vs control): -0.07 log2
MRPL14 (human)
  Log2 Fold change (vs control): 0 log2
MRPL55 (human)
  Log2 Fold change (vs control): -0.2 log2
MRPL10 (human)
  Log2 Fold change (vs control): -0.21 log2
CARS2 (human)
  Log2 Fold change (vs control): -0.38 log2
IDE (human)
  Log2 Fold change (vs control): -0.15 log2
MRPL12 (human)
  Log2 Fold change (vs control): 0.21 log2
ADCK3 (human)
  Log2 Fold change (vs control): -0.3 log2

## FlagBirA-ClpP (WT) (from UniProt P06709 1-321; Q16740 57-277) (enzyme)
MRPL47 (human)
  Log2 Fold change (vs control): -4.52 log2
NDUFV2 (human) [2]
  Log2 Fold change (vs control): -5.96 log2
PDK3 (human)
  Log2 Fold change (vs control): -1.55 log2
NDUFA2 (human)
  Log2 Fold change (vs control): -6.32 log2
MTRF1L (human)
  Log2 Fold change (vs control): -3.81 log2
VARS2 (human)
  Log2 Fold change (vs control): -5.52 log2
SDHB (human)
  Log2 Fold change (vs control): -0.82 log2
RTN4IP1 (human)
  Log2 Fold change (vs control): -1.5 log2
TFAM (human)
  Log2 Fold change (vs control): -1.61 log2
SUPV3L1 (human)
  Log2 Fold change (vs control): -0.12 log2
ABAT (human)
  Log2 Fold change (vs control): -2.58 log2
SLIRP (human)
  Log2 Fold change (vs control): -0.25 log2
HSDL2 (human)
  Log2 Fold change (vs control): -0.71 log2
TARS2 (human)
  Log2 Fold change (vs control): -1.95 log2
